Sequences and labels used below:
B1: mRNA-splicing (parent)
chain: AGUUGCUGCUGGGAGCUCCAGCACAGUGAAAUGGACAGAAGGGCAGAGCAA

This is an account of results in the RNAGym collection of RNA variant scans (doi:10.1101/gr.219683.116).

Variants of B1 are the subject of the data set. Kind of data set: exon inclusion enrichment index; higher = more inclusion; WT1 exon 5 minigene, HEK293.
As for G5U G8U C9U G15A, the “exon inclusion enrichment index” value was 0.0439.

Take G5C C6A U7C G8A: the “exon inclusion enrichment index” value is 0.613. For the variant G5C C6G U7C U10C A25G G26A, the “exon inclusion enrichment index” value turned out to be 5.6.

Consider G5C C6U G8C C9U U10C G11C G12A, for which the “exon inclusion enrichment index” value is 0.634. Turning to G5A C6U U7A G8U C9A A45G G46A, the “exon inclusion enrichment index” value amounted to 0.447.

On to G5C C6A U7C G8A U10A G21U, for which the “exon inclusion enrichment index” value worked out at 0.0631. On to G5C C6G U7C U10C A37C G38U, for which the “exon inclusion enrichment index” value was 2.1. In the case of G43U it was 0.11; in that of G5C C6G U7C U10C U17G C18G, 2.48. The value for G5C C6A U7C G8A U10A U17A C18A was 0.043; that for G5C C6U G8U C9A U10C was 0.494; that for G5U G8U C9U G12U G13C was 0.00926.

For G5U G8U C9U G26C, the “exon inclusion enrichment index” value was 0.177. Take C6A U7C: the “exon inclusion enrichment index” value came to 0.264. Consider C6A U7A C9A U10A A25G, for which the “exon inclusion enrichment index” value is 1.94. In the case of G5A U7C G8A U10C A25G G26C it was 3.84; in that of G5A C6U U7A G8U C9A A47C, 0.133. Regarding G5A C6U U7A G8U C9A C19U A20C, the “exon inclusion enrichment index” value is 0.078. The value for G5A U7C G8A U10C G33A was 0.235; that for G5C C6A U7C G8A U10A G13U A14U was 0.0352; that for C6A U7C G8A U10C was 2.3. On to C6A U7A C9A U10A G15C C16U, for which the “exon inclusion enrichment index” value came out at 0.63.

Regarding G5C C6G U7C U10C U32C G33C, the “exon inclusion enrichment index” value came out at 3.68. Take C6A U7C C9A U10C A29C A30C: the “exon inclusion enrichment index” value is 3.72. Take G5C C6U G8C C9U U10C U27A: the “exon inclusion enrichment index” value was found to be 2.29. The value for G5C C6U G8C C9U U10C U27G was 0.69; that for G5C C6U G8C C9U U10C A39U A40G was 0.572. As to G5A C6U U7A G8U C9A G12U, the “exon inclusion enrichment index” value was 0.0278.

As for G5C C6U G8C C9U U10C G34C A35C, the “exon inclusion enrichment index” value was 0.141. Regarding G5A C6G U7G C9A A30G A31G, the “exon inclusion enrichment index” value was determined as 0.00115. In the case of G5A U7C G8A U10C G33U G34C it was 0.815; in that of G5A C6U U7A G8U C9A G34A A35G, 0.00212. Turning to G5U G8U C9U G15C C16A, the “exon inclusion enrichment index” value amounted to 0.0947.

For the variant G5C C6U G8C C9U U10C C18G C19A, the “exon inclusion enrichment index” value is 2.82.

Regarding U4A C6U G8C C9U U10C, the “exon inclusion enrichment index” value was found to be 0.0827. The value for G5C C6A U7C G8A U10A A39G was 0.0326. The value for U17A C18A was 0.314; that for G5C C6G U7A G8C C9U U10C was 3.05.

Consider G5C C6U G8C C9U U10C C16G U17A, for which the “exon inclusion enrichment index” value came out at 2.4. The value for G5C C6U G8C C9U U10C C44U A45G was 1.03; that for G5C C6A U7C G8A U10A G42A was 0.428; that for C16A U17C was 0.0503. With G5C C6A U7C G8A U10A G46C, the “exon inclusion enrichment index” value was found to be 0.0718. As for A20U G21C, the “exon inclusion enrichment index” value turned out to be 2.37. The value for G5U C6U U7C C9A U10C was 2.91; that for C6A U7C C9A U10C G12A G13C was 2.54.

With C6A U7A C9A U10A C22G A23C, the “exon inclusion enrichment index” value was found to be 0.321. For C6A U7C C9A U10C A29U, the “exon inclusion enrichment index” value was determined as 1.74. Consider G5C C6G U7C U10C G43A C44A, for which the “exon inclusion enrichment index” value was found to be 4.31. In the case of G5C C6G U7C U10C A31G it was 3.79. The value for U4A G5C C6U G8C C9U U10C was 1.68; that for C6A U7C C9A U10C A40C G41U was 1.87. In the case of G5C C6U G8C C9U U10C A14C G15A it was 0.459; in that of C24A A25G, 0.315. G5C C6U G8C C9U U10C C19G A20U: the “exon inclusion enrichment index” value was 1.72. Consider C6A U7A C9A U10A G15A, for which the “exon inclusion enrichment index” value worked out at 0.818. The value for C6U U7C C9A U10A was 0.879; that for C6A U7A C9A U10A G34A A35C was 0.52.

Take G5A C6U U7A G8U C9A A23G: the “exon inclusion enrichment index” value stood at 0.157. Turning to C6A U7A C9A U10A A40C G41C, the “exon inclusion enrichment index” value was 1.98.

G5U G8U C9U C16U U17A: the “exon inclusion enrichment index” value amounted to 0.0519. In the case of C6A U7A C9A U10A G41C G42C it was 2.14; in that of G5C C6U G8C C9U U10C G28C, 1.55. The value for G5A C6G U7G C9A C24A was 0.00195. As for C6A U7A C9A U10A A31G U32A, the “exon inclusion enrichment index” value is 2.95. The value for C16U was 0.0903; that for U7C was 0.538; that for G5C C6U G8C C9U U10C A37G G38C was 2.08.

G21A: the “exon inclusion enrichment index” value was found to be 1.75. In the case of G5C C6G U7C U10C C18A C19U it was 0.321; in that of G5A C6U U7A G8U U10C, 1.03; in that of G5C C6G U7C U10C A40C G41U, 1.83. On to G5A C6U U7A G8U C9A C18A C19A, for which the “exon inclusion enrichment index” value came to 0.00553. The value for G5U G8U U10C was 1.8; that for G5A C6U U7A G8U C9A A20G G21A was 0.112; that for G5C C6G U7C U10C U17C C18U was 3.54. The value for G5U G8U C9U G33A was 0.00649; that for U4A G5C C6A U7C C9A U10C was 2.5; that for G5A U7C G8A U10C C24G A25U was 2.8. In the case of G5C C6U G8C C9U U10C U27A G28A, the “exon inclusion enrichment index” value was found to be 2.06. The value for G5A U7C G8A U10C C44G A45C was 3.34; that for C6A U7A C9A U10A A40U was 0.579. In the case of G5A U7C G8A U10C U17A it was 1.89; in that of G5A C6U U7A G8U C9A A25G G26A, 0.36.
